{"source": "paper PMC5717261", "target": "Recombinant human MASP-2 (stabilized in a proenzyme form by mutation of the active site Ser 618 into Ala) (human)", "experiment": "SPR; BIAcore 3000, 25 °C; BMP-1, mTLL-1 or MASP-2 immobilised by amine coupling on CM5; C1q or MBL injected (60 µl, 20 µl/min) at several concentrations in 50 mM triethanolamine-HCl, 145 mM NaCl, 2 mM CaCl2, 0.005% surfactant P20, pH 7.4; global fit to a 1:1 Langmuir model; apparent KD from kd/ka", "data": [{"substance": "Recombinant human mannose-binding lectin (MBL) (from UniProt P11226 21-248) (natural protein)", "values": [{"measurement": "Kd", "value": 1.7, "unit": "nM"}, {"measurement": "koff", "value": 0.00047, "unit": "s⁻¹"}, {"measurement": "kon", "value": 280000, "unit": "M⁻¹ s⁻¹"}]}]}
